PMC5584586

Assays:
Assay in all cases: SPR
[1] = target: human FcγRIIA 167R, HIS-tagged (human) (UniProt P12318)
[2] = target: human FcγRIIIA 176V, HIS-tagged (human) (UniProt P08637)
[3] = target: human FcγRIIIA 176F, HIS-tagged (human) (UniProt P08637)
[4] = target: human FcγRI, HIS-tagged (human) (UniProt P12314)
[5] = target: human FcγRIIA 167H, HIS-tagged (human) (UniProt P12318)
[6] = target: human FcγRIIB, HIS-tagged (human) (UniProt P31994)
Sequence of UniProt P31994 (P31994 43-310): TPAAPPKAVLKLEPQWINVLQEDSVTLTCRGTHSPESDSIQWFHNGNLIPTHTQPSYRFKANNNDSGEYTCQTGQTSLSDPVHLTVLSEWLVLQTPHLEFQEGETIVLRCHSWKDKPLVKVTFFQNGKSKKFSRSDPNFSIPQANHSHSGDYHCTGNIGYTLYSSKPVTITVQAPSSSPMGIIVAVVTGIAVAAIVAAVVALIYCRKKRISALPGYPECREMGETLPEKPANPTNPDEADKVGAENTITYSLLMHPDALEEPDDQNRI

Sequence of UniProt P12314 (P12314 16-374): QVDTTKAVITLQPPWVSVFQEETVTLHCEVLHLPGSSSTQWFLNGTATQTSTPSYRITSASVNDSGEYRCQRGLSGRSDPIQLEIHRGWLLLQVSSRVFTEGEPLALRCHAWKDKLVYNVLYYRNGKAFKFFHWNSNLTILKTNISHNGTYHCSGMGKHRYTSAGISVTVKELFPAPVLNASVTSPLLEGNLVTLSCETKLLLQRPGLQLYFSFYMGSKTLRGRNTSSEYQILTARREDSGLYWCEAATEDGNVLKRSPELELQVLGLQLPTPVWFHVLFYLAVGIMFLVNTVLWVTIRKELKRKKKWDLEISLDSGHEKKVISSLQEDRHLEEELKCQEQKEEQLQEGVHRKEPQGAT

TA99 hIgG1 N297D/S298A/K326I/A327Y/L328G, aglycosylated (antibody)
Kd [1]: > 10 µM | Kd [2]: 1.05 µM | Kd [3]: 2.23 µM | Kd [4]: 0.029 µM

TA99 hIgG1 N297D/S298T/K326I/A327Y/L328G, aglycosylated (antibody)
Kd [1]: 2.73 µM | Kd [2]: 1.04 µM | Kd [3]: 1.81 µM | Kd [4]: 0.005 µM

TA99 hIgG1 N297H/S298A/K326I/A327Y/L328G, aglycosylated (antibody)
Kd [2]: 1.79 µM | Kd [3]: 1.68 µM

TA99 hIgG1 N297Q, aglycosylated (antibody)
Kd [4]: 0.295 µM

TA99 hIgG1 S298G/T299A, aglycosylated (antibody)
Kd [1]: > 10 µM | Kd [5]: 0.996 µM | Kd [6]: 6.45 µM

TA99 hIgG1 T299A/K326I/A327Y/L328G, aglycosylated (antibody)
Kd [1]: 2.49 µM | Kd [5]: 0.605 µM | Kd [6]: 2.1 µM | Kd [2]: 0.452 µM | Kd [3]: 1.24 µM | Kd [4]: 0.243 µM

TA99 hIgG1 wild-type, glycosylated (from UniProt P01857 1-399) (antibody)
Kd [1]: 8.02 µM | Kd [5]: 1.15 µM | Kd [6]: 3.52 µM | Kd [2]: 1.7 µM | Kd [3]: 4.54 µM

human IgG1 used as a control on Biacore (antibody)
Kd [5]: 1.09 µM | Kd [6]: 6.5 µM | Kd [2]: 0.348 µM
